Each block holds one molecule with its values, some of them ahead of it.
Key:
[1] = target: T1, cardiac LC20 (Homo sapiens, UniProt P10916); test: In vitro phosphorylation of cardiac LC20; assay type: biochemical
T1 construct: using isolated cardiac myofibrils and associated proteins; from tissue
T1 sequence (P10916 1-166): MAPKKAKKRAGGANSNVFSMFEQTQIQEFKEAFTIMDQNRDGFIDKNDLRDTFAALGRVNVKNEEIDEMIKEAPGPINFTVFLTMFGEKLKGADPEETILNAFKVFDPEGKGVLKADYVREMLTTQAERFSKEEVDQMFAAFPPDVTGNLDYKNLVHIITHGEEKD
Method: In vitro phosphorylation of intact smooth, skeletal, cardiac, platelet, and Dictyostelium myosin and isolated LC20, caldesmon, and caldesmon fragments, and cardiac and skeletal Tn were carried out at 25° C. in 10 mM Tris, pH 7.0, 50 mM sodium chloride, 1 mM [γ^32P]ATP (5×10^5 cpm per nmol) or at 37° C. in the same buffer except containing 150 mM sodium chloride. Aliquots of the reaction mixture were analyzed for protein phosphorylation using Whatman P81 paper and SDS-gel electrophoresis/autoradiography as previously described (Childs, T. J. et al. 1992. J. Biol. Chem. 267:22853-22859). In the case of cardiac and skeletal Tn, the three Tn subunits (TnI, TnT, and TnC) were separated by reversed phase HPLC. The individual subunits were analyzed for incorporation of ^32P (i.e., phosphorylation by PAK) by SDS-PAGE and autoradiography and direct counting.
Phosphorylated amino acids were identified by thin-layer electrophoresis after partial hydrolysis of the phosphorylated proteins in 6 N hydrochloric acid as previously described (Childs, T. J. et al. 1992. J. Biol. Chem. 267:22853-22859; Mak, A. S. et al. 1991. J. Biol. Chem. 266:19971-19975; Mak, A. S. et al. 1991. J. Biol. Chem. 266:6678-6681). […]

[2] = tested on: actin-tropomyosin; test: Actin-tropomyosin binding assay (centrifugation); conditions: FIG. 5
Method: To quantitate the amount of smooth muscle caldesmon and smooth muscle tropomyosin bound to the skeletal actin thin filament (>95% amino acid homology to smooth muscle actin), centrifugation studies were carried out in binding buffer consisting of 20 mM Tris-HCl pH 7.2, 10 mM KCl, 5 mM MgCl2 and 1 mM DTT. The concentration of actin was 5 nmole/200 μl (˜25 μM) and the mole ratio of actin to tropomyosin was 7:2. Increasing quantities of unphosphorylated or phosphorylated caldesmon were added to the actin-tropomyosin mixture. Protein concentrations were determined by the Lowry method or by absorbance at 280 nm. Samples were spun for 30 min at approximately 95,000 rpm, resulting in the pelleting of over 95% of the actin. The obtained pellets were dissolved in 100 μl of 0.05% aqueous trifluroacetic acid (TFA) and injected on a Zorbax C8 SB300 reversed-phase column (4.6 mm×250 mm) on a Varian HPLC system (Star series). The various proteins were eluted using a 2% B/min linear A/B gradient with a 5 min initial isocratic hold, where solvent A is 0.05% aqueous TFA and solvent B is 0.05% TFA in acetonitrile. The flow rate was 1 ml/min. The peak areas were determined at 210 nm and converted to nanomoles using a standard curve obtained for each protein. […] The experiments were done in triplicate and the standard deviation calculated.

[3] = target: smooth muscle myosin ATPase (Gallus gallus, UniProt P02607+P10587); test: Actin-tropomyosin activated ATPase activity of smooth muscle subfragment 1 (S1); assay type: biochemical; conditions: FIG. 6
Sequence of smooth muscle myosin ATPase (P10587 84-789 limits assumed): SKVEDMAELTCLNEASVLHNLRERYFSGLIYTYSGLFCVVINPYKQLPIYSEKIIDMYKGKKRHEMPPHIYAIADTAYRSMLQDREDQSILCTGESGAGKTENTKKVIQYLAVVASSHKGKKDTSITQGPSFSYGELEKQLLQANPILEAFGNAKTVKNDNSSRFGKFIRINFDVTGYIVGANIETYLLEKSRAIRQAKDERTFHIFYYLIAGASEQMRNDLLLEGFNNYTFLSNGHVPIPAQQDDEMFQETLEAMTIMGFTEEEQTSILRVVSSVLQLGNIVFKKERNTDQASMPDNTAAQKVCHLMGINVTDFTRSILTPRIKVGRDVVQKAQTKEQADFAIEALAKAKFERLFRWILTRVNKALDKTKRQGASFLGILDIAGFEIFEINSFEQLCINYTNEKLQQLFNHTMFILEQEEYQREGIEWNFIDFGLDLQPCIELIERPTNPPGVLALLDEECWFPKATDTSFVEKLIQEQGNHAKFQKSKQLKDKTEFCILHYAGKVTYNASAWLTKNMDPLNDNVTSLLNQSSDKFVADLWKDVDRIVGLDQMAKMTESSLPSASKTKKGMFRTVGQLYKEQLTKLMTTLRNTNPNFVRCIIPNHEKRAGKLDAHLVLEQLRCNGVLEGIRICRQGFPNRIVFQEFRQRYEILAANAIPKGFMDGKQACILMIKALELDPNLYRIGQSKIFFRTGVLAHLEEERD
Sequence of smooth muscle myosin ATPase (P02607 2-151 limits assumed): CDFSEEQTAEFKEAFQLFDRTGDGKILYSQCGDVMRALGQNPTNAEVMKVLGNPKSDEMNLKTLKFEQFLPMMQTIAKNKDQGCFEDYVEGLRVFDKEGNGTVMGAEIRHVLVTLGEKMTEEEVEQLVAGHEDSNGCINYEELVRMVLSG
Method: Reactions consisted of 10 μM actin, 2 μM tropomyosin, 0.5 μM S1, and variable concentrations of unphosphorylated and phosphorylated caldesmon. The buffer contained 40 mM Tris-HCl pH 7.8, 50 mM KCl, 5 mM MgCl2, 1 mM DTT at 37° C. Reactions were performed in a 96 well microtitre plate, triggered by the addition of 4 mM ATP. The phosphate assay was performed according to the method of Chifflet, S. et al. 1988. (Anal. Biochem. 168:1-4). Briefly, reactions were terminated by the addition of an equal volume (100 μL) of reagent which contained 6% (w/v) SDS, 3% (w/v) ascorbic acid, 1M HCl, 0.5% (w/v) ammonium molybdate. The mixture was incubated for 5 minutes prior to the addition of a second reagent which contained 2% sodium citrate, 2% sodium m-arsenite, and 2% acetic acid. Blue colour developed quickly over 5 minutes. Microtitre plates were read at 650 nm on an E-max ELISA plate reader (Molecular Dynamics, Sunnyvale Calif.). Phosphate was determined by comparing experimental values to standard phosphate values obtained through dilution of phosphate-buffered saline (PBS).

Molecule: MLCK: myosin light chain kinase purified from chicken gizzard
phosphorylation of cardiac LC20 [1]: 0.2 mol phosphate per mol protein

change in affinity of caldesmon for actin(-tropomyosin), phosphorylated vs unphosphorylated [2]: approximately two-fold reduction
inhibition of smooth muscle myosin ATPase activity [3]: inhibition was clearly released
B1: PAK-phosphorylated caldesmon: caldesmon phosphorylated by PAK (protein, UniProt P12957 1-771, looked up)
Caldesmon: MDDFERRRELRRQKREEMRLEAERLSYQRNDDDEEEAARERRRRARQERLRQKEEGDVSGEVTEKSEVNAQNSVAEEETKRSTDDEAALLERLARREERRQKRLQEALERQKEFDPTITDGSLSVPSRREVNNVEENEITGKEEKVETRQGRCEIEETETVTKSYQRNNWRQDGEEEGKKEEKDSEEEKPKEVPTEENQVDVAVEKSTDKEEVVETKTLAVNAENDTNAMLEGEQSITDAADKEKEEAEKEREKLEAEEKERLKAEEEKKAAEEKQKAEEEKKAAEERERAKAEEEKRAAEERERAKAEEERKAAEERERAKAEEERKAAEERAKAEEERKAAEERAKAEEERKAAEERAKAEKERKAAEERERAKAEEEKRAAEEKARLEAEKLKEKKKMEEKKAQEEKAQANLLRKQEEDKEAKVEAKKESLPEKLQPTSKKDQVKDNKDKEKAPKEEMKSVWDRKRGVPEQKAQNGERELTTPKLKSTENAFGRSNLKGAANAEAGSEKLKEKQQEAAVELDELKKRREERRKILEEEEQKKKQEEAERKIREEEEKKRMKEEIERRRAEAAEKRQKVPEDGVSEEKKPFKCFSPKGSSLKIEERAEFLNKSAQKSGMKPAHTTAVVSKIDSRLEQYTSAVVGNKAAKPAKPAASDLPVPAEGVRNIKSMWEKGNVFSSPGGTGTPNKETAGLKVGVSSRINEWLTKTPEGNKSPAPKPSDLRPGDVSGKRNLWEKQSVEKPAASSSKVTATGKKSETNGLRQFEKEP
modifications: phosphorylated by PAK

inhibition of smooth muscle myosin ATPase activity [3]: inhibited
B2: caldesmon: unphosphorylated smooth muscle caldesmon purified from chicken gizzard (protein, UniProt P12957 1-771, looked up)
Caldesmon: B1 Caldesmon

Reference: patent US20020045564A1, “Methods of modulating muscle contraction” (priority 1997, published 2002)
